Data from the supplement of paper PMC10567573.

B1: DVL3 (parent)
chain: SDVVDWLYHNVEGFTDRREARKYA

Variants of: B1
Assay: protein stability index of a GFP-peptide fusion (GPS, HEK-293T) (PSI 1-6); higher = more stable
Details: c terminus: a fixed tail appended
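Further: lentivirally expressed fusions sorted by FACS into six bins by GFP to DsRed ratio, PSI derived from sequencing read proportions per bin multiplied by bin number.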

Protein stability index of substitutions, site by site:
V4: A 3.09; T 3.6; K 3.46; L 2.98; R 3.84; S 3.68; P 3.81; H 3.52; N 3.89; C 2.77; I 2.56; D 3.78; Q 3.67; F 3.53; W 2.44; G 3.84; E 4.08; Y 3.21; M 3.76
L7: H 4.68; K 4.64; Q 4.31; W 3.58; Y 3.28; P 3.63; F 2.12; C 3.65; R 2.65; E 5.12; M 3.44; T 4.05; I 3.01; V 3.5; G 4.25; A 3.54; S 4.75; D 4.58
D5: E 3.6; A 1.98; S 2.5; Y 2.53; T 2.75; P 3.71; M 2.87; C 1.84; L 1.41; V 1.19; N 2.07; K 2.36; F 2.21; W 1.7; Q 3.23; H 2.44; I 1.82; G 3.06
D2: L 2.12; F 1.9; C 2.16; K 2.73; I 2.46; G 2.89; E 3.01; W 1.64; M 2.09; R 2.23; P 2.62; A 1.85; T 2.9; S 2.74; H 2.91; N 3.36; V 2.72; Y 2.26
S1: G 3.78; F 2.23; V 3.5; N 3.42; L 3.51; R 2.52; H 3.27; T 3.1; K 2; Q 2.9
